From US20030147847A1 (IMMUNEX, published 2003)

Assays:
[1] = target: T1, NKG2D/Dap10 on transfected 293E cells (UniProt P26718 1-216; Q9UBK5 19-93); test: flow cytometry; NKG2D/Dap10-transfected 293E cells preincubated with 25 µg ULBP1/LZ (competitor)
T1 construct: whole, on cells; Co-expressed on 293 EBNA (293E) cells from the pDC409 vector; also called NKG2D+FLAG tagged Dap10
T1 sequence 1: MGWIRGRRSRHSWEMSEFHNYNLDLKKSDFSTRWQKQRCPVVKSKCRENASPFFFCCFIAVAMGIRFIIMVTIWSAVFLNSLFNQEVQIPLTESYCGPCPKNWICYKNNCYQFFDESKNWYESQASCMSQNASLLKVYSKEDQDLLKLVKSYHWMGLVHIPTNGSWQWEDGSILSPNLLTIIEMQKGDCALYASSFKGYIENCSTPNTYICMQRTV
T1 sequence 2: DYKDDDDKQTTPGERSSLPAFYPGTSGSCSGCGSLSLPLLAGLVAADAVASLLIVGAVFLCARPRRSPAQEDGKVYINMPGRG

[2] = target: T1, NKG2D/Dap10 on transfected 293E cells; test: flow cytometry; NKG2D/Dap10-transfected 293E cells preincubated with 25 µg hCD40L/LZ (control blocking protein)
[3] = target: T1, NKG2D/Dap10 on transfected 293E cells; test: flow cytometry, transfected 293 EBNA cells, 2 µg Fc protein + goat anti-human IgG PE
[4] = target: T2, FLAG tagged Dap10 alone on transfected 293 EBNA cells (UniProt Q9UBK5 19-93); test: as above
T2 construct: whole, on cells
T2 sequence: T1 sequence 2

[5] = target: T3, Full length UL16 on transfected 293 EBNA cells (human cytomegalovirus, UniProt P16757 27-230); test: as above
T3 construct: whole, on cells; also called UL16 FL
T3 sequence: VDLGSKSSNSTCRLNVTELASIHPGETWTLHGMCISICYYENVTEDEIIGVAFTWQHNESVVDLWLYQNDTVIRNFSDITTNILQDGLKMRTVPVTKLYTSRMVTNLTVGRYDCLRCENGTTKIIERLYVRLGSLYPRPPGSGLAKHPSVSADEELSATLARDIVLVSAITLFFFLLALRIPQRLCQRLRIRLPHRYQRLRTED

[6] = target: T4, NKG2D alone on transfected 293 EBNA cells (UniProt P26718 1-216, limits assumed); test: as above
T4 construct: whole, on cells
T4 sequence (looked up): T1 sequence 1

[7] = target: T3, Full length UL16 on transfected 293 …; test: flow cytometry on 293 EBNA cells transfected with full length UL16

B1: ULBP3/Fc (Fc fusion)
chain: DAHSLWYNFTIIHLPRHGQQWCEVQSQVDQKNFLSYDCGSDKVLSMGHLEEQLYATDAWGKQLEMLREVGQRLRLELADTELEDFTPSGPLTLQVRMSCECEADGYIRGSWQFSFDGRKFLLFDSNNRKWTVVHAGARRMKEKWEKDSGLTTFFKMVSMRDCKSWLRDFLMHRKKRLEPTAPPTMAPG
notes: That entry lacks the first five residues of the leader and still holds the rest of the signal peptide and the GPI signal; not shown: Fc portion of ULBP3/Fc is not described
[1]
  Mean Fluorescence Intensity (MFI): 13 MFI
[2]
  Mean Fluorescence Intensity (MFI): 267 MFI
[3]
  Mean Fluorescence Intensity (MFI): 102 MFI
[4]
  Mean Fluorescence Intensity (MFI): 14 MFI
[5]
  Mean Fluorescence Intensity (MFI): 11.9 MFI
[6]
  Mean Fluorescence Intensity (MFI): 9.55 MFI
[7]
  binding result: no binding (tested: 2 µg)
